Data on two molecules can be found in publication PMC1807957.

Data set [1] concerns the target POLγA (catalytic subunit of DNA polymerase γ);POLγB-VV (Homo sapiens?;Homo sapiens?, UniProt P54098;Q9UHN1 26-1239;26-485, |V119A;V125A). Kind of data set: EMSA supershift. In general terms: Mobility shift assays separate free from complexed probe on a gel.
Data set [2] concerns the target POLγA (catalytic subunit of DNA polymerase γ) (UniProt P54098 26-1239). The data set can be described thus: EMSA.
Data set [3] deals with POLγA (catalytic subunit of DNA polymerase γ);POLγB-RKK (Homo sapiens?;Homo sapiens?, UniProt P54098;Q9UHN1 26-1239;26-485, |R363A;K364A;K365A). The data set can be described thus: EMSA, competitor challenge.
Chain of POLγA (catalytic subunit of DNA polymerase γ);POLγB-RKK (P54098 26-1239, stated change not applied, one chain of several): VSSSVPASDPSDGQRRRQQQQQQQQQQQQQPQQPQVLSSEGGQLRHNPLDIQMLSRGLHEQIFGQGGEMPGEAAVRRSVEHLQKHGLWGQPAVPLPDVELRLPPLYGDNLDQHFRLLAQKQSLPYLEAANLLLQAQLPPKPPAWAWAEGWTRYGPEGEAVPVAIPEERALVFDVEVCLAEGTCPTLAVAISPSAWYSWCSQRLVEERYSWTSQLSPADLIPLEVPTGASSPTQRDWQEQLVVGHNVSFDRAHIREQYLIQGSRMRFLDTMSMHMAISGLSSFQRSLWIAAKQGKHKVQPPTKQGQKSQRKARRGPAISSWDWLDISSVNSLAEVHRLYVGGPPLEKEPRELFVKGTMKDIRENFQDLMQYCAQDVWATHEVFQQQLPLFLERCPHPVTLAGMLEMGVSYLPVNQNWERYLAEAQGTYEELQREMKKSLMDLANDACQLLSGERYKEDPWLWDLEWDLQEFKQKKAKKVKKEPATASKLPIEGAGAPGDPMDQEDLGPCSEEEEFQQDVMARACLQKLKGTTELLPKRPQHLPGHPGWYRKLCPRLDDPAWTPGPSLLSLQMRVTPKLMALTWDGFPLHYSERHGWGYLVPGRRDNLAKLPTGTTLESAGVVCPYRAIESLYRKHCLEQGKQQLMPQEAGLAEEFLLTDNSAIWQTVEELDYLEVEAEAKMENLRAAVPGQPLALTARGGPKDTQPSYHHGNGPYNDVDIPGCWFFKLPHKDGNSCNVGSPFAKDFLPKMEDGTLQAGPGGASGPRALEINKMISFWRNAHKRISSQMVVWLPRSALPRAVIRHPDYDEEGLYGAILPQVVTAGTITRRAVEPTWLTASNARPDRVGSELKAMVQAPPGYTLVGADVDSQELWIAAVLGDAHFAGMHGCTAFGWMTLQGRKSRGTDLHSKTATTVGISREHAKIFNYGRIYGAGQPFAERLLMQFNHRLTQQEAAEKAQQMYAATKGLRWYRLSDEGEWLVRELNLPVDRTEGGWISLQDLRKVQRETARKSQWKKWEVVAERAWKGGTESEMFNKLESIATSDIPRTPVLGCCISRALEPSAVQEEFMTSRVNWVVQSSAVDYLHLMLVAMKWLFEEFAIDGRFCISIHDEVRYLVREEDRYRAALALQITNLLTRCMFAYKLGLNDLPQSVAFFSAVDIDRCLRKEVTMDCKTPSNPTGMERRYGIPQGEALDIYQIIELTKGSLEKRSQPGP
Data set [4] deals with POLγA (catalytic subunit of DNA polymerase γ);POLγB-RK (Homo sapiens?;Homo sapiens?, UniProt P54098;Q9UHN1 26-1239;26-485, |R328A;K329A). Kind of data set: EMSA, competitor challenge.
Chain of POLγA (catalytic subunit of DNA polymerase γ);POLγB-RK (P54098 26-1239, stated change not applied, one chain of several): as above
The target in the next data set is T1, POLγB-VV (UniProt Q9UHN1 26-485, V119A;V125A).
T1 sequence: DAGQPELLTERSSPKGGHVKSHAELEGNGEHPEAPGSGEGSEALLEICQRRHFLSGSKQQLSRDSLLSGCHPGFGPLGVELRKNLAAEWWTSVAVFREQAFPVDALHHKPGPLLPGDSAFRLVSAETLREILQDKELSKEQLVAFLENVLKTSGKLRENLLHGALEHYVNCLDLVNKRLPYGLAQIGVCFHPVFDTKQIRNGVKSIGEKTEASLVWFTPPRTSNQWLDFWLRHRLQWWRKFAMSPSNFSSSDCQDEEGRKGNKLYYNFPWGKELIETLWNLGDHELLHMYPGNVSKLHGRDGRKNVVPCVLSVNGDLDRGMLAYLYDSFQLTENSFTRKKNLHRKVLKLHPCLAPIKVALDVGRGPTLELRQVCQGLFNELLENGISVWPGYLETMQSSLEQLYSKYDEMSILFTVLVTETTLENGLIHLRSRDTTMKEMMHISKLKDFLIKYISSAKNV
Kind of data set: EMSA.

The target in another data set is T2, POLγB-RKK (UniProt Q9UHN1 26-485, R363A;K364A;K365A).
T2 sequence: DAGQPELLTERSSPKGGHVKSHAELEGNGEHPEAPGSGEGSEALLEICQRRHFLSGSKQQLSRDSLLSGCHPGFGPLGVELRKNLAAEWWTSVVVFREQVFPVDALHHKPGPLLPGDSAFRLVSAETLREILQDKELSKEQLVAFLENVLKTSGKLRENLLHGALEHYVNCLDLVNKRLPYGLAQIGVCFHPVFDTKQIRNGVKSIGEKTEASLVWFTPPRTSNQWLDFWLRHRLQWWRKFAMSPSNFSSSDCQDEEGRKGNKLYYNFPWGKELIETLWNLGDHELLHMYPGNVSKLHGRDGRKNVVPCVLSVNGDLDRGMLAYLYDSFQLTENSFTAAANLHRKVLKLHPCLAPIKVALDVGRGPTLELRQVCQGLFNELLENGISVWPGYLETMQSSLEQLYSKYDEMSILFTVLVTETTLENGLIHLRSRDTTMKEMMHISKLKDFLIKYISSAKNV
Kind of data set: EMSA.

Data set [5] has as its target T3, POLγB wild type (accessory subunit of DNA polymerase γ) (UniProt Q9UHN1 26-485).
T3 sequence: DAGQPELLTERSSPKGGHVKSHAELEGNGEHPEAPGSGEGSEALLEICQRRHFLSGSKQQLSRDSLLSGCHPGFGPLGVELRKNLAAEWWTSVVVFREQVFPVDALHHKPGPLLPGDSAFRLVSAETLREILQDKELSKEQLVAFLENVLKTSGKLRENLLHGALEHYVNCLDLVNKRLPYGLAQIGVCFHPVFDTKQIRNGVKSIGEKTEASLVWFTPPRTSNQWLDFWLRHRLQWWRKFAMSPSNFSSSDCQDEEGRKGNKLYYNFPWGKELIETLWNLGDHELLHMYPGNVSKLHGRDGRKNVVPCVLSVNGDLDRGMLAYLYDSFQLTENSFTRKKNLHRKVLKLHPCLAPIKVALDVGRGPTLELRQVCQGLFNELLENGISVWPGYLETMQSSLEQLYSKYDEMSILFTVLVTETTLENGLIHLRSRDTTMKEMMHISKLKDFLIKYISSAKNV
The data set can be described thus: EMSA.

The target of a further data set is T4, POLγB-RK (UniProt Q9UHN1 26-485, R328A;K329A).
T4 sequence: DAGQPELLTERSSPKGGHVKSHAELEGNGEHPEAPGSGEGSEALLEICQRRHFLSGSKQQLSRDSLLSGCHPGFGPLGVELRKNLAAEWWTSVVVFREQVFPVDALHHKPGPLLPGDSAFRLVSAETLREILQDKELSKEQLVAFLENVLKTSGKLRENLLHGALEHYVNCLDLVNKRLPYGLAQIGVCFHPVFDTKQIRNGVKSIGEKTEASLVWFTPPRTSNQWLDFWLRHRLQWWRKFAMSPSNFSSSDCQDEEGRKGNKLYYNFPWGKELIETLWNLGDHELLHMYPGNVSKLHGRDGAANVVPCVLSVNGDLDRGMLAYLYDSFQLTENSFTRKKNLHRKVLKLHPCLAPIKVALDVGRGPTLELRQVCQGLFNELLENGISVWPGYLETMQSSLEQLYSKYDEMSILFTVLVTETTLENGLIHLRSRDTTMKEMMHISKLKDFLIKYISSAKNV
Kind of data set: EMSA.

Chain of POLγA (catalytic subunit of DNA polymerase γ);POLγB-VV (P54098 26-1239, stated change not applied, one chain of several): as the sequence (P54098 26-1239, stated change not applied, one chain of several) above
Chain of POLγA (catalytic subunit of DNA polymerase γ) (P54098 26-1239): as the sequence (P54098 26-1239, stated change not applied, one chain of several) above

B1: primed DNA template (35-mer/20-mer) (mixed)
DNA 1: TTTTTTTTTTATCCGGGCTCCTCTAGACTCGACCG
DNA 2: CGGTCGAGTCTAGAGGAGCC
In the case of B1, the binding result in data set [1], in data set [2], in data set [3] and in data set [4] was “binds” throughout.

B2: 50-bp dsDNA probe (dsDNA)
DNA 1: GGCGTATATCCAAATTAAAAGCATTTTTGATTGCATATATATCATCAGCT
DNA 2: AGCTGATGATATATATGCAATCAAAAATGCTTTTAATTTGGATATACGCC
B2: the binding result in the data set with POLγB-VV was “binds”; in the data set with POLγB-RKK, “no binding”; in data set [5], “binds”; with POLγB-RK it was “no binding”.
